Results reported in patent US20020147306A1, “Peptides that modulate the interaction of B class ephrins and PDZ domains” (priority 1998, published 2002).

Key:
[1] = biological target: T1, GST-FAP-1 PDZ5 binding to ephrin B1 (Homo sapiens, UniProt Q12923); assay: Peptide competition of GST-FAP-1 PDZ5 binding to ephrin B1 (GST mixing, immunoblot); settings: peptide 100 μM, lysates of ephrin B1-transfected Cos-1 cells
T1 construct: made in house; ephrin B1: transiently transfected Cos-1 cells (lysate)
T1 sequence (Q12923 1788-1868 limits assumed): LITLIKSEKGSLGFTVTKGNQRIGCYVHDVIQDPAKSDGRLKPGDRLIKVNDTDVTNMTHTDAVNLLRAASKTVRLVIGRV
Method: FIGS. 4A and 4B. FAP-1 PDZ5 and syntenin binding to ephrin B1 can be blocked by addition of peptides corresponding to the C-terminal sequence of B ephrins. Peptides of the indicated sequence were included at a concentration of 100 μM in incubations of GST fusion proteins with lysates of Cos-1 cells transfected with ephrin B1. Associated proteins were separated on a 10% polyacrylamide/SDS gel and analyzed by immunoblotting with antibodies against ephrin B1. FIG. 4A, Competition of FAP-1 PDZ5 binding to ephrin B1 using the indicated peptides. A peptide of sequence DHQpYpYND was added at a concentration of 100 μM as a negative control. Immunoprecipitation of ephrin B1 was included as a positive control. FIG. 4B, Peptide competition of the binding of full-length syntenin to ephrin B1.
Cos-1 cells were maintained in DMEM supplemented with 10% fetal bovine serum (FBS). Transient transfections were performed using Lipofectin reagent and Opti-MEM medium (Life Technologies Inc.) as outlined by the manufacturer. To reduce phosphorylation of ephrin B1 by binding to endogenously expressed EphB receptors or by stimulation with serum growth factors, transfected cells were transferred from 10 cm to 15 cm plates 24 h after transfection and serum starved in DMEM 0.5% FBS 12 h prior to cell lysis. […]

GRIP PDZ6 = biological target: T2, GRIP PDZ6 (Mus musculus, UniProt Q925T6); assay: Fluorescence polarization binding of fluorescent peptide to GST fusion of GRIP PDZ6
T2 construct: separate GST fusions of GRIP PDZ6 and GRIP PDZ7; made in house
T2 sequence (Q925T6 672-754 limits assumed): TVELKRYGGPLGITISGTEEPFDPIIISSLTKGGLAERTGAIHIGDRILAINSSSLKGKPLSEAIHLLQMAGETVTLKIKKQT
Method: (§1) All fluorescence polarization measurements were conducted at 22° C.

GRIP PDZ7 = biological target: T3, GRIP PDZ7 (Mus musculus, UniProt Q925T6); assay: Fluorescence polarization binding of fluorescent peptide to GST fusion of GRIP PDZ7
T3 construct: separate GST fusions of GRIP PDZ6 and GRIP PDZ7; made in house
T3 sequence (Q925T6 1003-1085 limits assumed): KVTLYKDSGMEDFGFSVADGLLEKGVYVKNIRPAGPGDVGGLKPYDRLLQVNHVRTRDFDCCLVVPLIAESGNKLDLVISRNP
Method: as §1

## DHQpYpYND
[1]
  blocking of GST-FAP-1 PDZ5 binding to ephrin B1: did not decrease binding

## GNIYYKV [fluorescent B ephrin C-terminal peptide]
GRIP PDZ6
  interaction with GST fusion of GRIP PDZ6: not detected
GRIP PDZ7
  interaction with GST fusion of GRIP PDZ7: not detected
